# Results published in PMC7317531 (Chembiochem, 2020).
# T1: SahH (Psilocybe cubensis, UniProt A0ACB8GS59)
# T1 sequence (A0ACB8GS59 1-430): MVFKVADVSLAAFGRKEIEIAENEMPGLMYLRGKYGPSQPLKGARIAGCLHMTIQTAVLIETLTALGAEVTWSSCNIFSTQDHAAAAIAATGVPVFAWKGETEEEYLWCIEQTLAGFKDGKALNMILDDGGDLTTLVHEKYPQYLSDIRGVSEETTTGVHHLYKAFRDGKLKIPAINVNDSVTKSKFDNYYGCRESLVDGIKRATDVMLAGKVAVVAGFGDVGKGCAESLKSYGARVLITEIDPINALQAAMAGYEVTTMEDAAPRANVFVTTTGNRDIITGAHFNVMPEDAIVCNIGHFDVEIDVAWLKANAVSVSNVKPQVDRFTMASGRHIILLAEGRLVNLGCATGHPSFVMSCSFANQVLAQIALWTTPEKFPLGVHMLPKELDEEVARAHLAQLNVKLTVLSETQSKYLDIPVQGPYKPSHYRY
# B1: AdoK (Psilocybe cubensis) (protein)
# chain: MSAPSYSLFCMGNPLLDMQVRNGEQLLEKYGLKANDAILADEKQSEIYDELVKEHQVTYVAGGAAQNAARGAAYILPPGSVVYTGAVGDDELAEQLKAANKREGLDQVYQVKKGEKTGACAVVITGHHRSLVTTLRVAEKFEKSHLSSPEVAPLVENAKFFYIEGYFLTHGVESALELSSKASAAGKTFVMNLSAPFIAQFFGEQLNQILPHTDIIIGNEAEAEAWATAHNYASTTDLASIAKQIALLPKSNPARPRVVVFTHGAQSTVLVSADRPDEARVFAVDVLADDKIVDTNGAGDAFAGGFVGALVAGKDLEGAVLAGHALARQCVQQVGPQYPWPKVDIL
# B2: SahH (Psilocybe cubensis) (protein)
# chain: T1 sequence (A0ACB8GS59 1-430)
# Tests used:
# [1] = biological target: T1, SahH; assay: inhibition of SAH hydrolysis; type: biochemical; details: hydrolytic direction
# [2] = biological target: T1, SahH; assay: Ellman's reagent; type: biochemical; details: hydrolytic direction, 100 μM NAD+, pH 7.8, 34 °C
# [3] = biological target: PsiM (Psilocybe cubensis, UniProt P0DPA9); assay: UHPLC-MS quantification of baeocystin and psilocybin; type: biochemical; details: 3 mM SAM, 1 mM norbaeocystin, 1 μM PsiM, pH 8.0, 25 °C; competitive
# [4] = substrate: Nc1ncnc2c1ncn2[C@@H]1O[C@H](COP(=O)(O)OP(=O)(O)OP(=O)(O)O)[C@@H](O)[C@H]1O; assay: purified protein; details: adenosine co-substrate, 10 mM MgCl2, pH 7.8, 30 °C
# [5] = substrate: Nc1ncnc2c1ncn2[C@@H]1O[C@H](CO)[C@@H](O)[C@H]1O; assay: purified protein
# [6] = substrate: N[C@@H](CCS)C(=O)O; assay: purified protein; details: synthetic direction, co-substrate adenosine
# [7] = ATP co-substrate, 10 mM MgCl2, pH 7.8, 30 °C
# [8] = synthetic direction, co-substrate L-homocysteine
molecule,measurement,setting,value
Nc1ncnc2c1ncn2[C@@H]1O[C@H](CO)[C@@H](O)[C@H]1O [Ado],inhibition,[1]; product inhibition,SAH hydrolysis is strongly inhibited by elevated Ado concentrations
Nc1ncnc2[nH]cnc12 [Ade],inhibition,[1]; tenfold excess over SAH,to a lower extent—by tenfold excess of Ade over the SAH substrate
Nc1ncnc2c1ncn2[C@@H]1O[C@H](CSCC[C@H](N)C(=O)O)[C@@H](O)[C@H]1O [SAH],Km,[2],57.2 µM
same,inhibition at 1-16 mM,[3],SAH competitively inhibited PsiM′s activity in a concentration‐dependent manner
B1,Km,[4],11.6 µM
same,kcat,[4],1400 s⁻¹
same,kcat/Km,[4],1.2e+08 M⁻¹ s⁻¹
same,Km,[5]; [7],33.6 µM
same,kcat,[5]; [7],1400 s⁻¹
same,kcat/Km,[5]; [7],4.2e+07 M⁻¹ s⁻¹
B2,Km,[6],19.8 µM
same,kcat,[6],1.8 s⁻¹
same,kcat/Km,[6],91000 M⁻¹ s⁻¹
same,Km,[5]; [8],56.7 µM
same,kcat,[5]; [8],1.8 s⁻¹
same,kcat/Km,[5]; [8],31000 M⁻¹ s⁻¹
